Results reported in IntAct's records for PubMed 27995898.

B1: S-adenosylhomocysteine hydrolase-like protein 1 (Homo sapiens), O43865 (parent)
chain: MSMPDAMPLPGVGEELKQAKEIEDAEKYSFMATVTKAPKKQIQFADDMQEFTKFPTKTGRRSLSRSISQSSTDSYSSAASYTDSSDDEVSPREKQQTNSKGSSNFCVKNIKQAEFGRREIEIAEQDMSALISLRKRAQGEKPLAGAKIVGCTHITAQTAVLIETLCALGAQCRWSACNIYSTQNEVAAALAEAGVAVFAWKGESEDDFWWCIDRCVNMDGWQANMILDDGGDLTHWVYKKYPNVFKKIRGIVEESVTGVHRLYQLSKAGKLCVPAMNVNDSVTKQKFDNLYCCRESILDGLKRTTDVMFGGKQVVVCGYGEVGKGCCAALKALGAIVYITEIDPICALQACMDGFRVVKLNEVIRQVDVVITCTGNKNVVTREHLDRMKNSCIVCNMGHSNTEIDVTSLRTPELTWERVRSQVDHVIWPDGKRVVLLAEGRLLNLSCSTVPTFVLSITATTQALALIELYNAPEGRYKQDVYLLPKKMDEYVASLHLPSFDAHLTELTDDQAKYLGLNKNGPFKPNYYRY
partner: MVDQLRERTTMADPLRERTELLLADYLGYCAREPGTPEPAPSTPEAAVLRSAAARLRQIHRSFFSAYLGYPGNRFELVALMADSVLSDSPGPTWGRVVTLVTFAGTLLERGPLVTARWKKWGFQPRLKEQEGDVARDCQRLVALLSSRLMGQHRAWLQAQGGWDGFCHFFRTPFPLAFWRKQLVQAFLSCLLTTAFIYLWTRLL

Variants of: B1
Details: with BCL2L10, Q9HD36

Row | effect of a mutation on the interaction | Variant
1 | with no effect | S68A
